{"source": "paper PMC8684725", "about": "(Molecular Biology of the Cell, 2021)", "key": {"crystal structure": {"molecular_target": "the molecule itself", "experiment": "crystal structure"}, "static light scattering": {"molecular_target": "the molecule itself", "experiment": "static light scattering"}}}
{"protein": "WNK1SA (WNK1/S382A), WNK1 (194-483) S382A, unphosphorylated kinase domain (domain or fragment) not shown", "values": [{"measurement": "binding result", "setting": "crystal structure", "result": "binds"}]}
{"protein": "unphosphorylated kinase domain of WNK3, WNK3 (118-409) (domain or fragment) not shown", "values": [{"measurement": "stoichiometry N", "setting": "static light scattering", "result": 2}]}
